Columns and labels:
[1] = molecular target: T1, G-CSF Receptor (G-CSFR) (R&D systems 381-GR-050/CF), recombinant human (human, UniProt Q99062 25-627, limits assumed); experiment: SPR, second-order reaction model, value as told in the text; second-order reaction model, highest concentration sensorgram
T1 construct: Bought protein, amine-coupled to a CM5 chip; also called rhG-CSFR; human G-CSF receptor
T1 sequence (looked up): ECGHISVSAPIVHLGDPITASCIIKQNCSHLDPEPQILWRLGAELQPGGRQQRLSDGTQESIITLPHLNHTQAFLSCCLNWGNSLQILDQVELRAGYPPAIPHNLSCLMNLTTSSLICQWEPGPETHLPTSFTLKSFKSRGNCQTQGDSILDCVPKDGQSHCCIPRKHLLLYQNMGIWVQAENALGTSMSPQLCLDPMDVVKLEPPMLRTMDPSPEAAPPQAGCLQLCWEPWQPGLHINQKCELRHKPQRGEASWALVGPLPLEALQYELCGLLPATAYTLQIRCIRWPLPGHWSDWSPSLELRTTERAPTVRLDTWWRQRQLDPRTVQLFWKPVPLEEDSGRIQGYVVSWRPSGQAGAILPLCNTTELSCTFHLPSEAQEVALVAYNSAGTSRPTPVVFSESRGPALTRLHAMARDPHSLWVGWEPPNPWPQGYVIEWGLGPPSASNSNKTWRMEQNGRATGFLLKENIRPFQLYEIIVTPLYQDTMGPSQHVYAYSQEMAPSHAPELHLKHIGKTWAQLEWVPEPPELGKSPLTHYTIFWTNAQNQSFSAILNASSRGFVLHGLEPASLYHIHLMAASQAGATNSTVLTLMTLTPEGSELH
Experimental: (§1) To obtain a more detailed picture on the nature of the binding, the inventors fitted the highest concentration sensorgram curves using higher order kinetics models. […] While this higher-order interaction model better explains the data than a 1:1 binding model, a clear deviation remained for rhG-CSF sensorgrams.
(§2) Single-cycle kinetics experiments were performed on a Biacore X100 system (GE Healthcare Life Sciences). G-CSF Receptor (G-CSFR) (R&D systems 381-GR-050/CF) was diluted to 50 μg/ml in 10 mM acetate buffer pH 5.0 and immobilized on the surface of a CM5 sensor chip (GE Healthcare 29149604) using standard amine coupling chemistry. The designs and rhG-CSF (USP RS Filgrastim, Sigma-Aldrich 1270435) were diluted in running buffer (10 mM HEPES, 150 mM NaCl, 3.4 mM EDTA, 0.005% v/v Tween-20). Analyses were conducted at 25° C. at a flow rate of 30 μl/min. Five sequential 10-fold increasing concentrations of the sample solution (for the designs from 0.5 nM to 50 μM, and for rhG-CSF from 0.05 to 500 nM) were injected over the functionalized sensor chip surface for 180 s, followed by a 180 s dissociation with running buffer. At the end of each run, the sensor surface was regenerated with a 240 s injection of 10 mM glycine-HCl pH 2.0. Each experiment was performed two times for rhG-CSF, Boskar3, Boskar4, diSohair2, Moevan, and Moevan_t2. Association rate (ka), dissociation rate (kd), and equilibrium dissociation (Kd) constants were initially obtained by global fitting of the experimental reference-subtracted data to a 1:1 interaction model using the Biacore X100 evaluation software (v.2.0.1).

[2] = molecular target: T1, G-CSF Receptor (G-CSFR) (R&D systems …); experiment: SPR, Biacore X100 single-cycle kinetics, G-CSFR amine-coupled on CM5, 1:1 binding model, second run
Experimental: as §2, with “(v.2.0.1). To evaluate if a kinetics model that depends on double the analyte stoichiometry improves the goodness of fit to the data, the following rate integral was used: […]” for “(v.2.0.1).”

[3] = molecular target: T1, G-CSF Receptor (G-CSFR) (R&D systems …); experiment: SPR, Biacore X100, G-CSFR amine-coupled on CM5, 2nd order kinetics model
Experimental: as §2, with “(v.2.0.1). To evaluate if a kinetics model that depends on double the analyte stoichiometry improves the goodness of fit to the data, the following rate integral was used: […]” for “(v.2.0.1).”

[4] = molecular target: T1, G-CSF Receptor (G-CSFR) (R&D systems …); experiment: SPR, Biacore X100, G-CSFR amine-coupled on CM5, 2nd order kinetics model, second run
Experimental: as §1, §2

[5] = molecular target: T1, G-CSF Receptor (G-CSFR) (R&D systems …); experiment: SPR, Biacore X100 single-cycle kinetics, G-CSFR amine-coupled on CM5, 1:1 binding model; Table 10 series (Moevan/diSohair2 comparison), 1:1 binding model
[6] = molecular target: T1, G-CSF Receptor (G-CSFR) (R&D systems …); experiment: SPR (Biacore), G-CSFR immobilised on the chip, rhG-CSF 4 nM - 64 nM as analyte, five traces with binding model fit [panel A]
[7] = molecular target: T1, G-CSF Receptor (G-CSFR) (R&D systems …); experiment: SPR, Biacore X100 single-cycle kinetics, G-CSFR amine-coupled on CM5, 1:1 binding model
Experimental: To test whether the grafted epitope residues mediate binding of the designs to the G-CSF receptor, the inventors also performed SPR measurements for the Moevan and diSohair2 initial design templates (Moevan_control and diSohair_control, respectively), and no binding was observed (FIG. 20C,F).
as §2, with “(v.2.0.1). To evaluate if a kinetics model that depends on double the analyte stoichiometry improves the goodness of fit to the data, the following rate integral was used: […]” for “(v.2.0.1).”

[8] = molecular target: T1, G-CSF Receptor (G-CSFR) (R&D systems …); experiment: as above; remark: listed apart in the source
Experimental: as §2, with “(v.2.0.1). To evaluate if a kinetics model that depends on double the analyte stoichiometry improves the goodness of fit to the data, the following rate integral was used: […]” for “(v.2.0.1).”

B1: rhG-CSF (recombinant human G-CSF; USP RS Filgrastim, Sigma-Aldrich 1270435) (ligand)
chain: TPLGPASSLPQSFLLKCLEQVRKIQGDGAALQEKLCATYKLCHPEELVLLGHSLGIPWAPLSSCPSQALQLAGCLSQLHSGLFLYQGLLQALEGISPELGPTLDTLQLDVADFATTIWQQMEELGMAPALQPTQGAMPAFASAFQRRAGGVLVASHLQSFLEVSYRVLRHLAQP
[1]
  Kd: 86 nM
[2]
  Kd: 0.41 nM
  koff: 0.00026 s⁻¹
  kon: 640000 M⁻¹ s⁻¹
[3]
  Kd: 82 nM
  koff: 0.0009 s⁻¹
  kon: 11000 M⁻¹ s⁻¹
[4]
  Kd: 88 nM
  koff: 0.00084 s⁻¹
  kon: 10000 M⁻¹ s⁻¹
[5]
  Kd: 1.1 nM
[6]
  Kd: 1.4 nM
  koff: 0.0004 s⁻¹
  kon: 290000 M⁻¹ s⁻¹
[7]
  koff: 0.00049 s⁻¹
  kon: 300000 M⁻¹ s⁻¹
[8]
  Kd: 0.36 nM
  koff: 0.00028 s⁻¹
  kon: 790000 M⁻¹ s⁻¹
